Laboratory results taken from paper PMC9023267.

T1: Mtr4WT (Saccharomyces cerevisiae, UniProt P47047 1-1073)
T1 sequence: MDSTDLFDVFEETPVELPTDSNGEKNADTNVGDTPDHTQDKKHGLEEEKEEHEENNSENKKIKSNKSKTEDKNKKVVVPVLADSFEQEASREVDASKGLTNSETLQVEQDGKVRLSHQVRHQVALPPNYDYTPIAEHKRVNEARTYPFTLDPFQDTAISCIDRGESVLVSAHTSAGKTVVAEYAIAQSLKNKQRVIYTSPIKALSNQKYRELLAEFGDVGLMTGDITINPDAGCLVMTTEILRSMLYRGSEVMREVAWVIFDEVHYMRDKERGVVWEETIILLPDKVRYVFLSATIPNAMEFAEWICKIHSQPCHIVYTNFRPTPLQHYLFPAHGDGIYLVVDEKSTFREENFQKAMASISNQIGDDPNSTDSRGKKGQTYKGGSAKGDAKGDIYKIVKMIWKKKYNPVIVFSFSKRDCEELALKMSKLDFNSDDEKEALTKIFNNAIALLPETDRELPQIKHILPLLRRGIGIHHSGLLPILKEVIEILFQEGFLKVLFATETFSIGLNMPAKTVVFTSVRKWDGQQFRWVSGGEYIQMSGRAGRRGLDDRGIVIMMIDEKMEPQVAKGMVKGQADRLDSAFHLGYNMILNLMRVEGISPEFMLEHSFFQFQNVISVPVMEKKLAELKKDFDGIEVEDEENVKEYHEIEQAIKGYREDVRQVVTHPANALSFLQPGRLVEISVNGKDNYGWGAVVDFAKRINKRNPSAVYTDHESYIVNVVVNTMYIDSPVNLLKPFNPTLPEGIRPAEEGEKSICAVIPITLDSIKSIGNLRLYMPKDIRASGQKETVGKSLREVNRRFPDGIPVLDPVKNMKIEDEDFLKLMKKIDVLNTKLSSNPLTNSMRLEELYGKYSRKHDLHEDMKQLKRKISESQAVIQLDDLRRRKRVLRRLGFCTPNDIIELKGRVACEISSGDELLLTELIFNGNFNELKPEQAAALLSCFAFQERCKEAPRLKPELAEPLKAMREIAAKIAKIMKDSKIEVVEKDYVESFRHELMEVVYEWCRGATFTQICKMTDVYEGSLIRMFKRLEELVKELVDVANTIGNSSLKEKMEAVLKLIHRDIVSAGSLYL

T2: Mtr4ΔF (fist-less) (Saccharomyces cerevisiae, UniProt P47047 1-666+=GGG+814-1073, internal_change)
T2 sequence: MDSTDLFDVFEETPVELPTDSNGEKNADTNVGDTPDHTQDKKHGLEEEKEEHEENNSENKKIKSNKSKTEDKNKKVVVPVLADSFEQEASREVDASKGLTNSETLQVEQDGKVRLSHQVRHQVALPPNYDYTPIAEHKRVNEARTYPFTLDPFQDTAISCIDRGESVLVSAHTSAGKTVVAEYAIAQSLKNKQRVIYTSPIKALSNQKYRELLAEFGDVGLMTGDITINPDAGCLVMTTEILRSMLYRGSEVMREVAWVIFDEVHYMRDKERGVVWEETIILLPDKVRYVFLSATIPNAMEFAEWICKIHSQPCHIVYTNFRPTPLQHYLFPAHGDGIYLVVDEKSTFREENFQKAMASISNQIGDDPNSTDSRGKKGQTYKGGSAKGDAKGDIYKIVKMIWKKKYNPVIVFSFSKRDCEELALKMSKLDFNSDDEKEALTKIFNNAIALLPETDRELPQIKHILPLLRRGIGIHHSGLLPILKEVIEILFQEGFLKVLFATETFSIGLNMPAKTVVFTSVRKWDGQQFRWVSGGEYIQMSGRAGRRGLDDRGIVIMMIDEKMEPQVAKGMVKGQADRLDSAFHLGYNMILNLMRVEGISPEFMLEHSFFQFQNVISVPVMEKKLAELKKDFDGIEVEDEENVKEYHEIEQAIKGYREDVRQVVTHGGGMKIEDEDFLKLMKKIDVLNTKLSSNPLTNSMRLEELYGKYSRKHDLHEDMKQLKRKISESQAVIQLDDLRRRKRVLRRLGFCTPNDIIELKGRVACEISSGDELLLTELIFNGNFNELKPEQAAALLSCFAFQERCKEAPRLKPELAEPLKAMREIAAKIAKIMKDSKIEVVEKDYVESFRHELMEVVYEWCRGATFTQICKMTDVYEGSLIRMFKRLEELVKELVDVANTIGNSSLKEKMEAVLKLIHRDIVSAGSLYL


Legend:
[1] = target: T1, Mtr4WT; assay: EMSA
[2] = target: T2, Mtr4ΔF (fist-less); assay: HDX-MS
[3] = target: T2, Mtr4ΔF (fist-less); assay: EMSA

Binder	Kd [1] [nM]	binding result [2]	Kd [3] [nM]
GCGUCUUUACGGUGCUUAAAACAAAACAAAACAAAACAAAAA (ssRNA) [ssRNA42]	420 ± 40	binds	–
dsRNA16 (dsRNA) RNA 1: GCGUCUUUACGGUGCUUAAAAA RNA 2: AGCACCGUAAAGACGC	1140 ± 80	–	1420 ± 220
tRNAiMet (structured_RNA, none (hypomodified, in vitro transcript)) RNA: GGGGUUCACUGCCGUAUAGGCAGAGCGCCGUGGCGCAGUGGAAGCGCGCAGGGCUCAUAACCCUGAUGUCCUCGGAUCGAAACCGAGCGGCGCCAAAAAAAAACGC	270 ± 20	binds	–
dsRNA32 (dsRNA) RNA 1: GCAGGAGCCUAGCUGAAAGAUGUCCUCGGAUCGACGCGUCUUUACGGUGCUUAAAAA RNA 2: AGCACCGUAAAGACGC	570 ± 30	binds	–
